According to article PMC10007213:

What was measured:
[1] = target: Dendrorhynchus zhejiangensis ferritin (DzFer) (Dendrorhynchus zhejiangensis); test: crystal structure; Cu^2+-DzFer crystallised (0.2 M sodium citrate, 0.1 M Tris pH 8.5, 30% PEG 400); space group I432; 2.26 Å
[2] = target: Dendrorhynchus zhejiangensis ferritin (DzFer) (Dendrorhynchus zhejiangensis); test: crystal structure; DzFer crystals (0.2 M ammonium sulfate, 0.1 M sodium acetate pH 4.6, 30% PEG MME 2000) soaked 1 min with 100 mM AgNO3; space group I432; 1.90 Å
[3] = target: Dendrorhynchus zhejiangensis ferritin (DzFer) (Dendrorhynchus zhejiangensis); test: native gel or EMSA; Native-PAGE, 6% gel, 4 °C, Tris-glycine pH 8.3; purified tag-free DzFer, also after incubation and dialysis at pH 4, 6, 8, 10, 12, and as Ag^+-DzFer and Cu^2+-DzFer; subunits to 24-mer cage

Measured: stoichiometry N

Dendrorhynchus zhejiangensis ferritin (DzFer) (natural protein)
24: all assays above
